According to patent publication US20170008928A1, “NOVEL PEPTIDES AND PEPTIDE DERIVATIVES AND USES THEREOF” (Novo Nordisk A/S, priority 2015, published 2017):
Starred links: 1 amine or outer side, 2 acyl side, 3 side chain; linkers in the order of their positions; H or OH if unused. Non-standard residues stand in square brackets, D forms with d. No end group written: not given here. *: point of attachment. Phe(4-CH2SO3H) = N[C@@H](Cc1ccc(CS(=O)(=O)O)cc1)C(=O)O; sY = N[C@@H](Cc1ccc(OS(=O)(=O)O)cc1)C(=O)O; C18 diacid = O=C(O)CCCCCCCCCCCCCCCCC(=O)*; d(βAsp) = O=C(O)[C@@H](CC(=O)[*:2])N[*:1]; C16 diacid = O=C(O)CCCCCCCCCCCCCCC(=O)*; γGlu = O=C(O)[C@H](CCC(=O)[*:2])N[*:1]; C14 diacid = O=C(O)CCCCCCCCCCCCC(=O)*; NMeF = CN[C@@H](Cc1ccccc1)C(=O)O; dNMeD = CN[C@H](CC(=O)O)C(=O)O; Nle = CCCC[C@H](N)C(=O)O; AEEA = NCCOCCOCC(=O)O

T1: human cholecystokinin-2 receptor (human, UniProt P32239 1-447)
T1 sequence (looked up): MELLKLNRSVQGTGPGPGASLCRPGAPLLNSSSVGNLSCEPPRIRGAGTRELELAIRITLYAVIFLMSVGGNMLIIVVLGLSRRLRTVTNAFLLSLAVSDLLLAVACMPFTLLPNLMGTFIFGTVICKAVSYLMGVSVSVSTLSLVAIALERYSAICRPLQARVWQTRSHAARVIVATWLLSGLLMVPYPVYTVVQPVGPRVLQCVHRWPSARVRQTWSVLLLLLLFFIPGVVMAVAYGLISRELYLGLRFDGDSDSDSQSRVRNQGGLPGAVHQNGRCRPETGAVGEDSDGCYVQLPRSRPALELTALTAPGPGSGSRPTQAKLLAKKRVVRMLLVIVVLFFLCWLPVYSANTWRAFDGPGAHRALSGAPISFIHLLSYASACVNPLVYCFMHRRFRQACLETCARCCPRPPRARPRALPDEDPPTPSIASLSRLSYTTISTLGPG

T2: human cholecystokinin-1 receptor (human, UniProt P32238 1-428)
T2 sequence (looked up): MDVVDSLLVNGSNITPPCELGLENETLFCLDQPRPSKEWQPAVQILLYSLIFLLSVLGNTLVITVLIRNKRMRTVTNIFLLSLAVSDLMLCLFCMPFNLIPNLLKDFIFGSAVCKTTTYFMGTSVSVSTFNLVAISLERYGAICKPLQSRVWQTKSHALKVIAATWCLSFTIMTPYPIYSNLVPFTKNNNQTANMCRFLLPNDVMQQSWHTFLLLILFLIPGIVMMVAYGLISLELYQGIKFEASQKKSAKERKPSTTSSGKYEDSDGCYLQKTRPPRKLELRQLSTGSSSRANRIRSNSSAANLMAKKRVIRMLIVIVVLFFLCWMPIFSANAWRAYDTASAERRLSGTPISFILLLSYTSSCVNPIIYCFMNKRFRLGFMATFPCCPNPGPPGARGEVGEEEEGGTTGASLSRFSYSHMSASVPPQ

B1: 2-[2-[2-[[2-[2-[2-[[(4S)-4-Carboxy-4-(13-carboxytridecanoylamino)butanoyl]amino]ethoxy]ethoxy]acetyl]amino]ethoxy]ethoxy]acetyl-Glu-sTyr-Leu-Gly-Trp-Nle-DMeAsp- … (peptide)
peptide: {C14 diacid-γGlu-AEEA-AEEA}-E[sY]LGW[Nle][dNMeD][NMeF]-NH2
SMILES: CCCC[C@H](NC(=O)[C@H](Cc1c[nH]c2ccccc12)NC(=O)CNC(=O)[C@H](CC(C)C)NC(=O)[C@H](Cc1ccc(OS(=O)(=O)O)cc1)NC(=O)[C@H](CCC(=O)O)NC(=O)COCCOCCNC(=O)COCCOCCNC(=O)CC[C@H](NC(=O)CCCCCCCCCCCCC(=O)O)C(=O)O)C(=O)N(C)[C@H](CC(=O)O)C(=O)N(C)[C@@H](Cc1ccccc1)C(N)=O
notes: X = Nle or Nal
B2: Asp-sTyr-Phe-Gly-Trp-Nle-DMeAsp-MePhe-amide (peptide)
peptide: D[sY]FGW[Nle][dNMeD][NMeF]-NH2
modifications: N-terminus assumed
SMILES: CCCC[C@H](NC(=O)[C@H](Cc1c[nH]c2ccccc12)NC(=O)CNC(=O)[C@H](Cc1ccccc1)NC(=O)[C@H](Cc1ccc(OS(=O)(=O)O)cc1)NC(=O)[C@@H](N)CC(=O)O)C(=O)N(C)[C@H](CC(=O)O)C(=O)N(C)[C@@H](Cc1ccccc1)C(N)=O
notes: X = Nle or Nal
B3: 2-[2-[2-[[2-[2-[2-[[(4S)-4-Carboxy-4-(17-carboxyheptadecanoylamino)butanoyl]amino]ethoxy]ethoxy]acetyl]amino]ethoxy]ethoxy]acetyl-DbAsp-Phe(4-sulfomethyl)-Nle-G … (peptide)
peptide: {C18 diacid-γGlu-AEEA-AEEA}-[d(βAsp)][Phe(4-CH2SO3H)][Nle]GW[Nle][dNMeD][NMeF]-NH2
SMILES: CCCC[C@H](NC(=O)[C@H](Cc1ccc(CS(=O)(=O)O)cc1)NC(=O)C[C@@H](NC(=O)COCCOCCNC(=O)COCCOCCNC(=O)CC[C@H](NC(=O)CCCCCCCCCCCCCCCCC(=O)O)C(=O)O)C(=O)O)C(=O)NCC(=O)N[C@@H](Cc1c[nH]c2ccccc12)C(=O)N[C@@H](CCCC)C(=O)N(C)[C@H](CC(=O)O)C(=O)N(C)[C@@H](Cc1ccccc1)C(N)=O

Tests used:
[1] = target: T1, human cholecystokinin-2 receptor; experiment: cell-based or functional assay
[2] = target: T1, human cholecystokinin-2 receptor; experiment: SPA competition vs [125I]-CCK-8s, membranes
Method: CCK receptor binding assays were performed in 96-well Optiplates (Cat #6005290, PerkinElmer, Waltham, Mass., USA) in a total volume of 200 μl per well.
The plates were sealed and incubated in the dark at +22° C. for 2 hours on a IKA MTS plate shaker (IKA-Werke D-79219 Staufen) set at 300 rpm and thereafter centrifuged at 1500 rpm for 10 minutes in a Heraeus Multifuge 3s centrifuge. SPA bead light emission was measured in a TopCount NXT (PerkinElmer) for 2 min/well after a delay of 60 min.

[3] = target: T2, human cholecystokinin-1 receptor; experiment: cell-based or functional assay

Binder | EC50 (CCK-2R) [1] | IC50 [2] | EC50 (CCK-1R) [3]
B1 | 150 nM | 1200 nM | –
{C18 diacid-γGlu-AEEA-AEEA}-D[sY]PGW[Nle][dNMeD][NMeF]-NH2 (X = Nle or Nal) | 300 nM | 5200 nM | –
{C16 diacid-γGlu-AEEA-AEEA}-E[sY]LGW[Nle][dNMeD][NMeF]-NH2 (X = Nle or Nal) | 110 nM | 590 nM | –
{C18 diacid-γGlu-AEEA-AEEA}-D[sY]HGW[Nle][dNMeD][NMeF]-NH2 (X = Nle or Nal) | > 1000 nM | 9000 nM | –
B2 | > 1000 nM | – | 0.22 nM
{C18 diacid-γGlu-AEEA-AEEA}-D[sY]IGW[Nle][dNMeD][NMeF]-NH2 (X = Nle or Nal) | 210 nM | 340 nM | –
{C18 diacid-γGlu-AEEA-AEEA}-D[Phe(4-CH2SO3H)]LGW[Nle][dNMeD][NMeF]-NH2 (X = Nle or Nal) | 81 nM | 380 nM | –
B3 | – | – | 0.43 nM
